Results on 13 sequences are retold here after the supplement of paper PMC9170038.

The subject of this data set is K4 kissing-loop RNA reporter. The experiment in a line: apparent KD of K4 kissing-loop reporter; higher = weaker reporter binding. Conditions: Eterna round: R107. The method, then: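 RNA-MaP round R107: designed RNA switches with theophylline, tryptophan, arginine or FMN aptamers are transcribed on-chip within common flanks. They are titrated with a labelled K4 kissing-loop RNA reporter in RNA-MaP buffer (100 mM Tris pH 7.5, 80 mM KCl, 4 mM MgCl2), without ligand or with the indicated ligand. Median apparent KD per design.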

Where [1] appears, read: input ligand: theophylline 20 uM.
Setting [2] is: input ligand: tryptophan 2.4 mM.
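Also: bound reporter read as fluorescence of individual clusters on recovered sequencing chips by microscopy, with normalized cluster intensities fitted with a binding model.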

Take “AAAACUAUCAGAAGGAGCGUGGAAUAUACAUCUAUAUUUAAUACGAGUGAUGUUCGUAAUUCACAGGUAGGUCGCUGAUCAAUAA [whbob_Ex_Arginine_B_2th153]”: the “apparent KD of K4 kissing-loop reporter” value (input ligand: FMN 200 uM) amounted to 228 nM; the “apparent KD of K4 kissing-loop reporter” value (input ligand: arginine 13.2 mM) was found to be 320 nM; the “apparent KD of K4 kissing-loop reporter” value (input ligand: none) was 278 nM; the “apparent KD of K4 kissing-loop reporter” value under setting [1] amounted to 359 nM; the “apparent KD of K4 kissing-loop reporter” value under setting [2] is 206 nM.
For the sequence “AAAACUAUCAGAAGGAGCGUGGAAUAUUCAUCUGUAUCUAAUACGAGUGAUGUUCGUAAUUCACAGGUAGGUCGCUGAUCAAUAA [whbob_Ex_Arginine_B_2th155]”, the “apparent KD of K4 kissing-loop reporter” value reads like this: (input ligand: FMN 200 uM) 255 nM; (input ligand: arginine 13.2 mM) 226 nM; (input ligand: none) 241 nM; under setting [1], 250 nM; under setting [2], 241 nM.
Take “AAAAUAAAAGCAGUCAUCGGAGUGAUGUUCCGAGGACCGGUACGGCCGCCACUCGACCAGACAAAGUCUGGAUGGCGAGACUGCA [#SwitchBubble 18 #K4Early]”: the “apparent KD of K4 kissing-loop reporter” value is, setting by setting: (input ligand: FMN 200 uM) 83.6 nM; (input ligand: arginine 13.2 mM) 85.1 nM; (input ligand: none) 102 nM; under setting [1], 91.4 nM; under setting [2], 85.6 nM.
For “AAAAUAAACCAGUGAUGUUGGUGUCCAGAUACCAGCGACGAAAGUCGCCCUUGGCAGCUGUGGACGUACAAAAUAAGUACGUCCU”, in that order: 332 nM, 229 nM, 356 nM, 209 nM and 290 nM.
Take “AAAAUAAAUCAGUGAUGUUGGUAUCUGGAUACCAGCGAUAAUAAUCGCCCUUGGCAGCCAUGGACGUACAAAAUAAGUACGUCCU [MatMod 18 - Jieux - Same State - Theophylline A]”: the “apparent KD of K4 kissing-loop reporter” value is, setting by setting: (input ligand: FMN 200 uM) 285 nM; (input ligand: arginine 13.2 mM) 154 nM; (input ligand: none) 226 nM; under setting [1], 337 nM; under setting [2], 200 nM.
Consider “AAAAUUAAGGCCGAAUAAACUUAUUUCAUACGAGGACCGGUACGGCCGCCACUCGAGUCAAGUGAUGUUUGACUAUCUAUUAUUA [JR_ExcTryptoA_Sub009]”, for which the “apparent KD of K4 kissing-loop reporter” value (input ligand: FMN 200 uM) came out at 61.4 nM; the “apparent KD of K4 kissing-loop reporter” value (input ligand: arginine 13.2 mM) stood at 87.1 nM; the “apparent KD of K4 kissing-loop reporter” value (input ligand: none) was found to be 68.7 nM; the “apparent KD of K4 kissing-loop reporter” value under setting [1] was 83 nM; the “apparent KD of K4 kissing-loop reporter” value under setting [2] worked out at 54 nM.
For “AAACAUCACUGGGAGUGAUGUUCUCAGUGACGAGGACCGGUACGGCCGCCACUCGCGAGAGAUAUAGAUGAGUAAUGACAUCAUU [Excl Tryptophan A V3]”, in that order: 277 nM, 232 nM, 286 nM, 274 nM and 304 nM.
With “AAACAUCACUGGGAGUGAUGUUCUCAGUGACGAGGACCGGUACGGCCGCCACUCGCGAGAGAUUUAGUCUAGUAUUGACUGCAUU [Excl Tryptophan A V11]”, the “apparent KD of K4 kissing-loop reporter” value is, setting by setting: (input ligand: FMN 200 uM) 294 nM; (input ligand: arginine 13.2 mM) 273 nM; (input ligand: none) 304 nM; under setting [1], 353 nM; under setting [2], 358 nM.
In the case of “AAACGUUGGUGCGAUACCAGCUUGCGCGGAAAACGCGCUACUGGAGUGAUGUUCCUAAAUAGCCCUUGGCAGCGCACCGACGAAA [MAT - Same State Theophlline B - Mod of Eli - D9]”, the “apparent KD of K4 kissing-loop reporter” value (input ligand: FMN 200 uM) worked out at 193 nM; the “apparent KD of K4 kissing-loop reporter” value (input ligand: arginine 13.2 mM) turned out to be 146 nM; the “apparent KD of K4 kissing-loop reporter” value (input ligand: none) turned out to be 155 nM; the “apparent KD of K4 kissing-loop reporter” value under setting [1] came to 107 nM; the “apparent KD of K4 kissing-loop reporter” value under setting [2] was 170 nM.
In the case of “AAAGCAUUGAGAAGGAGCGUGUCGUGGAGUGAUGUUCCAUUGUAGACCUAAGGUCUACAAGCACAGGUAGGUCGCUCAUUGCUAA [JR_Nu_SSArginiB_Sub023]”, the “apparent KD of K4 kissing-loop reporter” value came out at 169 nM (input ligand: FMN 200 uM); 148 nM (input ligand: arginine 13.2 mM); 173 nM (input ligand: none); 138 nM under setting [1]; 156 nM under setting [2].
For “AAAGGAUCAGAGAGUGAUGUUCUCUAAUAACGAGGACCGGUACGGCCGCCACUCGAAGAUCCAAAAGUCCUACGAAAAGUAGGAC [Omei inspired 7]”, the “apparent KD of K4 kissing-loop reporter” value (input ligand: FMN 200 uM) worked out at 92.9 nM; the “apparent KD of K4 kissing-loop reporter” value (input ligand: arginine 13.2 mM) came to 69.3 nM; the “apparent KD of K4 kissing-loop reporter” value (input ligand: none) came to 83.7 nM; the “apparent KD of K4 kissing-loop reporter” value under setting [1] came to 251 nM; the “apparent KD of K4 kissing-loop reporter” value under setting [2] was 263 nM.
For “AAAUAGAUCAGUCACCCAGUGAUGUUGGAAGGAGCGUGCGAAAGCACAGGUAGGUCGCCGAAAUAAAAUUGGCUGAUCAAAAUAA”, the “apparent KD of K4 kissing-loop reporter” value reads like this: (input ligand: FMN 200 uM) 151 nM; (input ligand: arginine 13.2 mM) 221 nM; (input ligand: none) 116 nM; under setting [1], 308 nM; under setting [2], 104 nM.
As to “AAAUAGCAGCAACGAGUGAUGUUCGACGAUACCAGCCUCGAUAGAGGCCCUUGGCAGCGUAAAUGAUCACAAAGCCAAGGGCUGC [#SwitchBubble 2]”, the “apparent KD of K4 kissing-loop reporter” value (input ligand: FMN 200 uM) worked out at 382 nM; the “apparent KD of K4 kissing-loop reporter” value (input ligand: arginine 13.2 mM) worked out at 372 nM; the “apparent KD of K4 kissing-loop reporter” value (input ligand: none) came to 458 nM; the “apparent KD of K4 kissing-loop reporter” value under setting [1] was 453 nM; the “apparent KD of K4 kissing-loop reporter” value under setting [2] amounted to 397 nM.
